For assay [1], the target named is HLA-A*02:01. The assay is described as follows: IEDB peptide-MHC binding, purified MHC/competitive/fluorescence; ≥ and ≤ were set here for values at or beyond the usual limits of such assays.
A further assay deals with HLA-A*24:02. The assay is described as above.
Another assay addresses HLA-A*01:01. Put plainly: IEDB peptide-MHC binding, purified MHC/direct/fluorescence; filed as Kd, often an IC50 or EC50 that approximates it; ≥ and ≤ were set here for values at or beyond the usual limits of such assays.
Assay [2] concerns the target HLA-A*02:01. The assay is described as above.
The target of another assay is HLA-A*03:01. Described as above.
The target in another assay is HLA-A*11:01. The description is as above.
In assay [3] the target is HLA-A*26:01. The description is as above.
The target in another assay is HLA-A*31:01. Described as above.
In the next assay the target is HLA-A*69:01. The description is as above.
Assay [4] has as its target HLA-B*07:02. The description is as above.
Assay [5] deals with HLA-B*08:01. The description is as above.
The target of another assay is HLA-B*15:01. The description is as above.
Another assay addresses HLA-B*27:05. Described as above.
A further assay has as its target HLA-B*40:01. Described as above.
A further assay addresses HLA-B*44:02. The assay is described as above.
Another assay concerns the target HLA-B*58:01. The description is as above.
The next assay addresses HLA-B*35:01. Put plainly: IEDB peptide-MHC binding, purified MHC/competitive/radioactivity; filed as Kd, often an IC50 or EC50 that approximates it; ≥ and ≤ were set here for values at or beyond the usual limits of such assays.
For the next assay, the target named is HLA-B*53:01. The assay is described as above.
Assay [6] deals with HLA-B*07:02. The description is as above.
The target of a further assay is HLA-B*51:01. The description is as above.
The next assay addresses HLA-A*30:02. The description is as above. Particulars: source organism: Dengue virus 1 Brazil/97-11/1997.
Assay [7] addresses HLA-B*08:01. The assay is described as above. Particulars: source organism: Dengue virus 2 Jamaica/1409/1983.
In assay [8] the target is HLA-A*26:01. The description is as above. Particulars: source organism: Dengue virus 3 Martinique/1243/1999.
The mark [9] stands for this setting: source organism: Sudan ebolavirus.
[10] abbreviates: source organism: Escherichia coli O157:H7.
The mark [11] stands for this setting: source organism: Giardia lamblia ATCC 50803.
Setting [12] is: source organism: Zaire ebolavirus.
[13] abbreviates: source organism: Vaccinia virus Copenhagen.
Setting [14] is: source organism: Dengue virus 4 Philippines/H241/1956.
Setting [15] is: source organism: Dengue virus 2 Jamaica/1409/1983.
Where [16] appears, read: source organism: Dengue virus 1 Brazil/97-11/1997.
[17] abbreviates: source organism: Cryptosporidium parvum.
Where [18] appears, read: source organism: Dengue virus 3 Martinique/1243/1999.
The mark [19] stands for this setting: source organism: Vaccinia virus.
The mark [20] stands for this setting: source organism: Pseudomonas aeruginosa UCBPP-PA14.
[21] abbreviates: source organism: Vaccinia virus WR.
[22] abbreviates: source organism: Escherichia coli.

Some results are limits rather than exact numbers.

Here are results for 39 sequences from the Immune Epitope Database (IEDB).

Take LITSTVTGI: the results for the IC50 in the assay with HLA-A*02:01 [1] (setting [9]) and in the assay with HLA-A*24:02 (setting [9]) were 1.64 µM and 17.9 µM, respectively.

As to RFDEAIINY, the Kd in the assay with HLA-A*01:01 (setting [10]), in the assay with HLA-A*02:01 [2] (setting [10]), in the assay with HLA-A*03:01 (setting [10]), in the assay with HLA-A*11:01 (setting [10]), in the assay with HLA-A*26:01 [3] (setting [10]) and with HLA-A*31:01 (setting [10]) was at least 20 µM each time. The equilibrium dissociation constant (Kd) (usually the free concentration of one partner at which half of the binding sites on the other are occupied at equilibrium, for simple one-to-one binding) in the assay with HLA-A*69:01 (setting [10]) is at least 20 µM; with HLA-B*07:02 [4] (setting [10]) it was at least 20 µM; with HLA-B*08:01 [5] (setting [10]) it was at least 20 µM; with HLA-B*15:01 (setting [10]) it was at least 20 µM; in the assay with HLA-B*27:05 (setting [10]) it was at least 20 µM; in the assay with HLA-B*40:01 (setting [10]) it was at least 10 µM. For the same sequence, the Kd with HLA-B*44:02 (setting [10]) and with HLA-B*58:01 (setting [10]) was at least 20 µM each time.

Consider DYIYLPLLK, for which the Kd is at least 20 µM in the assay with HLA-A*01:01 (setting [11]); at least 20 µM with HLA-A*02:01 [2] (setting [11]); 2.22 µM in the assay with HLA-A*03:01 (setting [11]); at least 20 µM with HLA-A*26:01 [3] (setting [11]); at least 20 µM in the assay with HLA-A*69:01 (setting [11]); at least 20 µM in the assay with HLA-B*07:02 [4] (setting [11]). For the same sequence, the dissociation constant Kd in the assay with HLA-B*08:01 [5] (setting [11]), in the assay with HLA-B*15:01 (setting [11]), with HLA-B*27:05 (setting [11]), with HLA-B*40:01 (setting [11]), with HLA-B*44:02 (setting [11]) and in the assay with HLA-B*58:01 (setting [11]) was at least 20 µM throughout.

Turning to KEGAFFLYD, the IC50 (as a rule, the concentration needed to halve the response being measured) with HLA-A*02:01 [1] (setting [12]) is at least 3840 µM; with HLA-A*24:02 (setting [12]) it was 46 µM.

In the case of TETKITFAL, the IC50 is at least 83.3 µM with HLA-A*02:01 [1] (setting [13]) and 19 µM with HLA-A*24:02 (setting [13]).

As to YVSAGESSI, in the assay with HLA-A*02:01 [1] (setting [13]), the IC50 is 32.7 µM.

Regarding EPWLSSKPEF, the equilibrium dissociation constant (Kd) with HLA-B*35:01 (setting [14]) came to 1.38 µM; in the assay with HLA-B*53:01 (setting [14]), 0.684 µM.

For SPIVDRKGKV, in the assay with HLA-B*07:02 [6] (setting [15]), the dissociation constant (Kd) was 0.545 µM.

As for ELSFEALSL, the IC50 in the assay with HLA-A*02:01 [1] (setting [9]) was found to be 23.9 µM; with HLA-A*24:02 (setting [9]) it was 39.5 µM.

Consider IPATLFVWY, for which the dissociation constant Kd in the assay with HLA-B*35:01 (setting [16]) amounted to 0.00339 µM; with HLA-B*53:01 (setting [16]), 0.01 µM.

TTELRTYTI: the figures for the half-inhibitory concentration (IC50) with HLA-A*02:01 [1] (setting [9]) and with HLA-A*24:02 (setting [9]) were at least 94.5 µM and 0.925 µM, respectively.

In the case of VPTSRTTWSI, the Kd with HLA-B*07:02 [6] (setting [15]) worked out at 0.0503 µM; with HLA-B*51:01 (setting [15]) it was 0.0525 µM.

Take DFIGKTIGF: the Kd in the assay with HLA-A*01:01 (setting [17]) was at least 20 µM; in the assay with HLA-A*02:01 [2] (setting [17]), at least 20 µM; with HLA-A*03:01 (setting [17]), at least 20 µM; in the assay with HLA-A*11:01 (setting [17]), at least 20 µM; with HLA-A*26:01 [3] (setting [17]) it was 0.186 µM; in the assay with HLA-A*31:01 (setting [17]), at least 20 µM. The Kd with HLA-A*69:01 (setting [17]), with HLA-B*07:02 [4] (setting [17]), with HLA-B*08:01 [5] (setting [17]), in the assay with HLA-B*15:01 (setting [17]), with HLA-B*27:05 (setting [17]) and with HLA-B*40:01 (setting [17]) was at least 20 µM each time. Besides, the dissociation constant Kd with HLA-B*44:02 (setting [17]) and in the assay with HLA-B*58:01 (setting [17]) was at least 20 µM in each case.

Regarding HALLATSIF, in the assay with HLA-B*35:01 (setting [16]), the dissociation constant Kd stood at 0.0168 µM.

Consider IIQAFEAGV, for which the IC50 in the assay with HLA-A*02:01 [1] (setting [12]) is 2.47 µM.

Regarding GPMPVTHSSA, the Kd in the assay with HLA-B*07:02 [6] (setting [15]) came out at 0.00721 µM.

Regarding KPSGSASSM, in the assay with HLA-B*07:02 [6] (setting [16]), the Kd came to 0.00488 µM.

STLAGVNVG gave a half-inhibitory concentration (IC50) with HLA-A*02:01 [1] (setting [12]) of at least 105 µM.

Sequence ELLPAVSSG displayed an IC50 with HLA-A*02:01 [1] (setting [12]) of at least 194 µM.

Turning to YKVASEGFQY, the values for the equilibrium dissociation constant (Kd) with HLA-A*30:02 and with HLA-B*35:01 (setting [16]) were 0.135 µM and 3.92 µM, respectively.

Turning to RLRMDKLQL, the Kd with HLA-B*07:02 [6] (setting [15]) came to 0.149 µM; in the assay with HLA-B*08:01 [7] it was 0.175 µM.

As to DGQQFYWPV, the IC50 in the assay with HLA-A*02:01 [1] (setting [12]) turned out to be 57.2 µM; with HLA-A*24:02 (setting [12]), 62 µM.

With TPQDNQLIYV, the Kd with HLA-B*07:02 [6] (setting [14]) came to 7.76 µM.

On to SPARLASAI, for which the figures for the Kd in the assay with HLA-B*07:02 [6] (setting [14]) and with HLA-B*51:01 (setting [14]) were 0.00268 µM and 0.532 µM, respectively.

As for MPGTFQTTTG, the figures for the Kd with HLA-B*35:01 (setting [18]) and in the assay with HLA-B*53:01 (setting [18]) were 0.157 µM and 0.427 µM, respectively.

In the case of SLEEEYPPW, the half-inhibitory concentration (IC50) with HLA-A*02:01 [1] (setting [12]) was at least 214 µM; with HLA-A*24:02 (setting [12]), at least 179 µM.

Regarding TPHSGEEHAV, in the assay with HLA-B*07:02 [6] (setting [15]), the Kd worked out at 0.162 µM.

As for RLEEEINNQ, the values for the IC50 in the assay with HLA-A*02:01 [1] (setting [19]) and with HLA-A*24:02 (setting [19]) were at least 195 µM and 32.6 µM, respectively.

Consider EPIEGKVVQY, for which the equilibrium dissociation constant (Kd) with HLA-A*26:01 [8] is 2.73 µM; with HLA-B*35:01 (setting [18]), 0.491 µM; with HLA-B*53:01 (setting [18]) it was 5.03 µM.

For TQETITETA, the IC50 with HLA-A*02:01 [1] (setting [9]) was at least 184 µM.

As to YQLLEAVYG, the half-maximal inhibitory concentration (IC50) with HLA-A*02:01 [1] (setting [13]) is 31.1 µM.

For the sequence GLGGDASAY, the dissociation constant (Kd) in the assay with HLA-A*01:01 (setting [20]), with HLA-A*02:01 [2] (setting [20]), with HLA-A*03:01 (setting [20]), in the assay with HLA-A*11:01 (setting [20]), with HLA-A*26:01 [3] (setting [20]) and with HLA-A*31:01 (setting [20]) was at least 20 µM each time. The Kd was at least 20 µM with HLA-A*69:01 (setting [20]); at least 20 µM with HLA-B*07:02 [4] (setting [20]); at least 20 µM with HLA-B*08:01 [5] (setting [20]); 0.3 µM with HLA-B*15:01 (source organism: Pseudomonas aeruginosa); at least 20 µM with HLA-B*27:05 (setting [20]); at least 20 µM with HLA-B*40:01 (setting [20]). This sequence had a dissociation constant Kd in the assay with HLA-B*58:01 (setting [20]) of at least 20 µM.

In the case of SPPEVERAVL, the Kd with HLA-B*07:02 [6] (setting [16]) is 0.0197 µM.

As for LFTEQAFYT, the values for the half-maximal inhibitory concentration (IC50) with HLA-A*02:01 [1] (setting [21]) and in the assay with HLA-A*24:02 (setting [21]) were 68.1 µM and 55 µM, respectively.

In the assay with HLA-A*02:01 [1] (setting [9]), QSPPIREAV gave an IC50 of 38.3 µM.

Take TVANNPDDK: the Kd with HLA-A*01:01 (setting [22]) was at least 20 µM; in the assay with HLA-A*02:01 [2] (setting [22]), at least 20 µM; in the assay with HLA-A*03:01 (setting [22]), at least 20 µM; in the assay with HLA-A*11:01 (setting [22]), 1.58 µM; in the assay with HLA-A*26:01 [3] (setting [22]) it was at least 20 µM; with HLA-A*69:01 (setting [22]), at least 20 µM. Further, the Kd in the assay with HLA-B*07:02 [4] (setting [22]), with HLA-B*08:01 [5] (setting [22]), in the assay with HLA-B*15:01 (setting [22]), with HLA-B*27:05 (setting [22]), with HLA-B*40:01 (setting [22]) and in the assay with HLA-B*58:01 (setting [22]) was at least 20 µM throughout.

As to AAIGLAWIP, the values for the IC50 with HLA-A*02:01 [1] (setting [12]) and with HLA-A*24:02 (setting [12]) were at least 280 µM and at least 131 µM, respectively.

MPTVIEHLER: the dissociation constant Kd with HLA-B*35:01 (setting [18]) came out at 0.871 µM; with HLA-B*53:01 (setting [18]) it was 7.05 µM.

ESGAVKYLE: the IC50 with HLA-A*24:02 (setting [12]) was at least 209 µM.
